# Assay results: the supplement of paper PMC5998384
# Legend:
# HeLa Kyoto [1] = assay: thermal stability score vs G1/S (z-score of summed log2 fold changes over temperatures); higher = more thermally stable than in G1/S
# HeLa Kyoto [2] = assay: solubility change mitosis vs G1/S (difference of NP-40 vs SDS log2 ratios) (log2 ratio difference); higher = more soluble in mitosis
# HeLa Kyoto [3] = assay: melting temperature (median over replicates), in situ; higher = more thermally stable
# HeLa Kyoto [4] = assay: solubility in G1/S (NP-40 vs SDS abundance) (log2 ratio); higher = more soluble; settings: cell cycle stage: G1/S
# [5] = cell cycle stage: early G1 (4.5 h after nocodazole release)
# 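Throughout, for melting temperature (median over replicates), in situ: HeLa Kyoto cells synchronized by double thymidine or nocodazole block, proteins quantified by TMT10plex mass spectrometry, three independent biological replicates.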
# 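Throughout, for solubility change mitosis vs G1/S (difference of NP-40 vs SDS log2 ratios): synchronized HeLa Kyoto cells (double thymidine block for G1/S, nocodazole release for mitosis), protein amounts in NP-40 versus SDS lysates quantified by mass spectrometry, three biological replicates.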
# 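Throughout, for solubility in G1/S (NP-40 vs SDS abundance): HeLa Kyoto cells arrested at G1/S by double thymidine block, proteins quantified by TMT10plex mass spectrometry in mild NP-40 versus SDS extracts, three biological replicates.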
# 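Throughout, for thermal stability score vs G1/S (z-score of summed log2 fold changes over temperatures): synchronized HeLa Kyoto cells, proteins quantified by TMT10plex mass spectrometry, three biological replicates, mitosis taken 0.5 h after nocodazole release, G1/S directly after double thymidine block.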
Substance,thermal stability score (HeLa Kyoto [1]; [5]),thermal stability score (HeLa Kyoto [1]; cell cycle stage: mitosis),solubility change mitosis (log2) (HeLa Kyoto [2]),melting temperature (HeLa Kyoto [3]; cell cycle stage: G1/S) [°C],melting temperature (HeLa Kyoto [3]; cell cycle stage: mitosis) [°C],solubility in G1/S (log2) (HeLa Kyoto [4])
MDPECAQLLPALCAVLVDPRQPVADDTCLEKLLDWFKTVTEGESSVVLLQEHPCLVELLSHVLKVQDLSSGVLSFSLRLAGTFAAQENCFQYLQQGELLPGLFGEPGPLGRATWAVPTVRSGWIQGLRSLAQHPSALRFLADHGAVDTIFSLQGDSSLFVASAASQLLVHVLALSMRGGAEGQPCLPGGDWPACAQKIMDHVEESLCSAATPKVTQALNVLTTTFGRCQSPWTEALWVRLSPRVACLLERDPIPAAHSFVDLLLCVARSPVFSSSDGSLWETVARALSCLGPTHMGPLALGILKLEHCPQALRTQAFQVLLQPLACVLKATVQAPGPPGLLDGTADDATTVDTLLASKSSCAGLLCRTLAHLEELQPLPQRPSPWPQASLLGATVTVLRLCDGSAAPASSVGGHLCGTLAGCVRVQRAALDFLGTLSQGTGPQELVTQALAVLLECLESPGSSPTVLKKAFQATLRWLLSSPKTPGCSDLGPLIPQFLRELFPVLQKRLCHPCWEVRDSALEFLTQLSRHWGGQADFRCALLASEVPQLALQLLQDPESYVRASAVTAMGQLSSQGLHAPTSPEHAEARQSLFLELLHILSVDSEGFPRRAVMQVFTEWLRDGHADAAQDTEQFVATVLQAASRDLDWEVRAQGLELALVFLGQTLGPPRTHCPYAVALPEVAPAQPLTEALRALCHVGLFDFAFCALFDCDRPVAQKSCDLLLFLRDKIASYSSLREARGSPNTASAEATLPRWRAGEQAQPPGDQEPEAVLAMLRSLDLEGLRSTLAESSDHVEKSPQSLLQDMLATGGFLQGDEADCY [BRAT1],1.55,4.01,-0.141,46.5,48.4,0.0286
ASL,3.02,4.07,0.00521,51.4,52.1,-0.0391
MANDSGGPGGPSPSERDRQYCELCGKMENLLRCSRCRSSFYCCKEHQRQDWKKHKLVCQGSEGALGHGVGPHQHSGPAPPAAVPPPRAGAREPRKAAARRDNASGDAAKGKVKAKPPADPAAAASPCRAAAGGQGSAVAAEAEPGKEEPPARSSLFQEKANLYPPSNTPGDALSPGGGLRPNGQTKPLPALKLALEYIVPCMNKHGICVVDDFLGKETGQQIGDEVRALHDTGKFTDGQLVSQKSDSSKDIRGDKITWIEGKEPGCETIGLLMSSMDDLIRHCNGKLGSYKINGRTKAMVACYPGNGTGYVRHVDNPNGDGRCVTCIYYLNKDWDAKVSGGILRIFPEGKAQFADIEPKFDRLLFFWSDRRNPHEVQPAYATRYAITVWYFDADERARAKVKYLTGEKGVRVELNKPSDSVGKDVF [EGLN1],2.53,0.714,0.0496,49.3,50.2,0.331
MERAISPGLLVRALLLLLLLLGLAARTVAAGRARGLPAPTAEAAFGLGAAAAPTSATRVPAAGAVAAAEVTVEDAEALPAAAGEQEPRGPEPDDETELRPRGRSLVIISTLDGRIAALDPENHGKKQWDLDVGSGSLVSSSLSKPEVFGNKMIIPSLDGALFQWDQDRESMETVPFTVESLLESSYKFGDDVVLVGGKSLTTYGLSAYSGKVRYICSALGCRQWDSDEMEQEEDILLLQRTQKTVRAVGPRSGNEKWNFSVGHFELRYIPDMETRAGFIESTFKPNENTEESKIISDVEEQEAAIMDIVIKVSVADWKVMAFSKKGGHLEWEYQFCTPIASAWLLKDGKVIPISLFDDTSYTSNDDVLEDEEDIVEAARGATENSVYLGMYRGQLYLQSSVRISEKFPSSPKALESVTNENAIIPLPTIKWKPLIHSPSRTPVLVGSDEFDKCLSNDKFSHEEYSNGALSILQYPYDNGYYLPYYKRERNKRSTQITVRFLDNPHYNKNIRKKDPVLLLHWWKEIVATILFCIIATTFIVRRLFHPHPHRQRKESETQCQTENKYDSVSGEANDSSWNDIKNSGYISRYLTDFEPIQCLGRGGFGVVFEAKNKVDDCNYAIKRIRLPNRELAREKVMREVKALAKLEHPGIVRYFNAWLEAPPEKWQEKMDEIWLKDESTDWPLSSPSPMDAPSVKIRRMDPFATKEHIEIIAPSPQRSRSFSVGISCDQTSSSESQFSPLEFSGMDHEDISESVDAAYNLQDSCLTDCDVEDGTMDGNDEGHSFELCPSEASPYVRSRERTSSSIVFEDSGCDNASSKEEPKTNRLHIGNHCANKLTAFKPTSSKSSSEATLSISPPRPTTLSLDLTKNTTEKLQPSSPKVYLYIQMQLCRKENLKDWMNGRCTIEERERSVCLHIFLQIAEAVEFLHSKGLMHRDLKPSNIFFTMDDVVKVGDFGLVTAMDQDEEEQTVLTPMPAYARHTGQVGTKLYMSPEQIHGNSYSHKVDIFSLGLILFELLYPFSTQMERVRTLTDVRNLKFPPLFTQKYPCEYVMVQDMLSPSPMERPEAINIIENAVFEDLDFPGKTVLRQRSRSLSSSGTKHSRQSNNSHSPLPSN [EIF2AK3],-0.111,0.409,-0.0251,51,–,0.0589
MNEAMATDSPRRPSRCTGGVVVRPQAVTEQSYMESVVTFLQDVVPQAYSGTPLTEEKEKIVWVRFENADLNDTSRNLEFHEIHSTGNEPPLLIMIGYSDGMQVWSIPISGEAQELFSVRHGPIRAARILPAPQFGAQKCDNFAEKRPLLGVCKSIGSSGTSPPYCCVDLYSLRTGEMVKSIQFKTPIYDLHCNKRILVVVLQEKIAAFDSCTFTKKFFVTSCYPCPGPNMNPIALGSRWLAYAENKLIRCHQSRGGACGDNIQSYTATVISAAKTLKSGLTMVGKVVTQLTGTLPSGVTEDDVAIHSNSRRSPLVPGIITVIDTETVGEGQVLVSEDSDSDGIVAHFPAHEKPVCCMAFNTSGMLLVTTDTLGHDFHVFQILTHPWSSSQCAVHHLYTLHRGETEAKVQDICFSHDCRWVVVSTLRGTSHVFPINPYGGQPCVRTHMSPRVVNRMSRFQKSAGLEEIEQELTSKQGGRCSPVPGLSSSPSGSPLHGKLNSQDSYNNFTNNNPGNPRLSPLPSLMVVMPLAQIKQPMTLGTITKRTGPYLFGAGCFSIKAPCKVKPPPQISPSKSMGGEFCVAAIFGTSRSWFANNAGLKREKDQSKQVVVESLYIISCYGTLVEHMMEPRPLSTAPKISDDTPLEMMTSPRASWTLVRTPQWNELQPPFNANHPLLLAADAVQYYQFLLAGLVPPGSPGPITRHGSYDSLASDHSGQEDEEWLSQVEIVTHTGPHRRLWMGPQFQFKTIHPSGQTTVISSSSSVLQSHGPSDTPQPLLDFDTDDLDLNSLRIQPVRSDPVSMPGSSRPVSDRRGVSTVIDAASGTFDRSVTLLEVCGSWPEGFGLRHMSSMEHTEEGLRERLADAMAESPSRDVVGSGTELQREGSIETLSNSSGSTSGSIPRNFDGYRSPLPTNESQPLSLFPTGFP [BCAS3],-0.731,-1.02,-0.229,52.9,52.2,-0.0403
